We go through one molecule from patent US20020077295A1.

For this assay, the target named is Nogo binding sites (axonal Nogo receptors) on chick dorsal root ganglion neurons (chick). Kind of assay: competition with 10 nM AP-Nogo binding to chick E12 DRG neurons (FIG. 3b).

Where no end group is shown, it is not given here.

Usually Ki stands for the equilibrium dissociation constant of an inhibitor or competing ligand from its target.

For RIYKGVIQAIQKSDEGHPFRAYLESEVAISEELVQKYSNS (not fully specified) [Pep2-41 (2-41 fragment of Nogo)], the Ki came to 150 nM.
